The chains are these.
B1: R18-11-01 (antibody, V domains shown)
VH: AVQLVESGGGLVQPKESLKISCAASGFTFINAAIYWVRQAPGKGLEWVARIRTKPDNYATYYADSVKGRFTISRDDSKSMVYLQMHNLKTEDTAMYYCTAATTGIKFDYWGQGVMVTVSA
VL: DIVMTQSPSSLAVSAGETVTIDCKSSQSLLYSGNQKTYLAWYQQKPGQSPKLLIYWASTRQSGVPDRFIGSGSGTDFTLTISSVQAEDLAIYYCQQYYDTPLTFGSGTKLEIK
B2: R18-12-24 (antibody, V domains shown)
VH: AVQLVESGGGLVQPKESLKISCAASGFTFSNAAMYWVRQAPGKGLEWVARIRTKPNNYATYYADSVKGRFTISRDDSKSMVYLQMDNLKTEDTAMYYCTADYSSYIRFAYWGQGTLVTVSS
VL: B1 VL
B3: R18-11-07 (antibody, V domains shown)
VH: AVQLVESGGGLVQPKESLRISCAASGFTFSNAAMYWVRQAPGKGLEWVARIRTKPNSYAPYYADSVRGRFTISRDDSKSMVYLQMDNLKTEDTAMYYCTAGGNSGYSDYWGQGVMVTVSS
VL: B1 VL
B4: R18-13-32 (antibody, V domains shown)
VH: AVQLVESGGGLVQPKESLKISCAASGFTFSYAAMYWVRQAPGKGLEWVARIRSKPNNYATYYADSVKGRFTISRDDSKSMVYLQMDNLKTEDTAMYYCTAPYYYDGSPFEYWGQGVMVTVSS
VL: B1 VL
B5: R18-12-20 (antibody, V domains shown)
VH: AVQLVESGGGLVQPKESLKISCAASGFTLSTVAMYWVRQAPGKGLEWVARIRTKPNNYAIYYADSVKGRFTISRDDSKSMVYLQMDNLKTEDTAMYYCTAPGIIRAPFAYWGQGTLVTVSS
VL: B1 VL
B6: R18-13-30 (antibody, V domains shown)
VH: AVQLVESGGGLVQPKESLKVSCAASGFTFSHAAMYWVRQAPGKGLEWVARITTEPNNYATNYADSVKGRFTISRDDSKSMVFLQMDNMKTEDTAMYYCTAEVRVYPYYFDYWGQGVMVTVSS
VL: B1 VL
B7: R18-11-03 (antibody, V domains shown)
VH: AVQLVESGGGLVRPKESLKISCAASGFTFSNAAMYWVRQAPGKGLEWVARIRSKPNNYATHYADSVKGRFIISRDDSKGMVYLQMDNLKTEDTAKYYCTAAGGGYGFDDWGQGVMVTVSS
VL: B1 VL
B8: R18-12-19 (antibody, V domains shown)
VH: B2 VH with A63T, D101E, Y102G, Y105R, I106N, R107W
VL: B1 VL
B9: R18-12-14 (antibody, V domains shown)
VH: AVQLVESGGGLVQPKESLKISCAVSGFTFTNAAMYWVRQAPGKGLEWIARIRTQPNNYATYYADSVRGRFTTSRDDSKSMVYLQMDNLKTEDTAMYYCTAGRATGTPFDYWGQGVMVTVSS
VL: B1 VL
B10: R18-13-31 (antibody, V domains shown)
VH: AVQLVESGGGLVQPIESLKISCAASGFTFTNAAMYWVRQAPGKGLEWIARIRTKPNDYATYYADSVKGRFTISRDDSESVVYLQMDNLKTEDTATYYCTAAWDYYSSAFDYWGQGVMVTVSS
VL: B1 VL
B11: R18-12-21 (antibody, V domains shown)
VH: B2 VH with I20L, N31D, D101L, Y102F, S103L, S104I, Y105V, I106A, R107P
VL: B1 VL
B12: R18-11-10 (antibody, V domains shown)
VH: AVQLVESGGGVVRPKESLRISCAASGFTFSNVAMYWVRQAPGKGLEWVARIRTKPNNYATNYADSVKGRFTISRDDSNSMVNLQMENLKTEDTAMYYCTAVGGHNWFAYWGQGTLVTVSS
VL: B1 VL
B13: R18-12-23 (antibody, V domains shown)
VH: AVQLVESGGGLVQPKESLKISCAASAFSFSNVAMYWVRQAPGKGLEWIARIRTKPNNYATYYADSVKGRFTISREDSKSMVYLQMDNLKTEDTATYYCTADNYPGGGFRYWGQGTLVTVSS
VL: B1 VL
B14: R18-11-13 (antibody, V domains shown)
VH: AVQLVESGGGLVQPKESLKISCAASGFTFSNVAMYWVRQAPRKGLEWVARIRTKPNNYATYYADSVKGRFTISRDDSKSMVYLQMDNLKTDDTAMYYCTAGVYYGSMDAWGQGTSVTVSS
VL: B1 VL
B15: R18-11-11 (antibody, V domains shown)
VH: AVQLVESGGGLVQPKESLKISCAASGFTFSNAAMHWVRQAPGKGLEWVARIRTRPNNYATYYADSVKGRFTISRDDSKSMVYLQMDNLKTEDTAMYYCTAGTGSSPFAYWGQGTLVTVSS
VL: B1 VL
B16: R18-11-12 (antibody, V domains shown)
VH: AVQLVESGGGLVQPKESVKISCAASGFTFSNAAMYWVRQAPGKGLEWIARIRSKPHNHATYYADSVKGRFTISRDDSESMVYLQMDNLKTEDTAMYYCTSDTGPNWFTYWGQGTLVTVSS
VL: B1 VL
B17: R18-11-05 (antibody, V domains shown)
VH: AVQLVESGGGLVQPKASLKISCVASGFTFSKNAMYWVRQAPGKGLEWVARIRTKPNNYAAYYADSVKGRFTISRDDSESMVYLQMDNLKTEDTAMYYCTAGDFNSPFDFWGQGVMVTVSS
VL: B1 VL
B18: R18-11-06 (antibody, V domains shown)
VH: AVQLVESGGGLVQPKESLKISCAASGFTFSNAAMYWVRQAPGKGLEWVARIRTQPNNYATYYADSVKGRFTISRDDSKSVVYLQMDNLKTADTAMYYCTAGYGYNLFDYWGQGVMVTVSS
VL: B1 VL
B19: R18-12-17 (antibody, V domains shown)
VH: AVQLVESGGGLVKPKESLKISCAASGFTFSNAAMYWVRQAPGKGLDWVARIRTKPYNYATFYADSVKGRFTISRDDSKNMVYLQMDNLKTEDTAVYYCTTDGEPRPRFAYWGQGTLVTVSS
VL: B1 VL
B20: R18-12-22 (antibody, V domains shown)
VH: B2 VH with M34I, D101G, S103Y, Y105G, I106G, R107P
VL: B1 VL
B21: R18-11-08 (antibody, V domains shown)
VH: B15 VH with H35Y, R54K, G101A, T102Y, G103Y, S105G
VL: B1 VL
B22: R18-13-29 (antibody, V domains shown)
VH: AVQLVESGGGLVQPKESLKVSCAASGFTFSNADIYWVRQAPGKGLEWVARIRTKPNNYATYYGDSVKGRFTISRDDSKSMVYLQMDNLKTEDTAMYYCTAGEGLWVNYFDYWGQGVMVTVSS
VL: B1 VL
B23: R18-12-18 (antibody, V domains shown)
VH: AVQLVESGGGLVQPKESLKISCAASGFTFRNAAMFWVRQAPGKGLEWVARIRTKPNNFATYYADSVKGRFTISRDDSKSMVYLQMDNLKTEDTAMYYCTGFYNDGAPFDYWGQGTLVTVSS
VL: B1 VL
B24: R18-13-27 (antibody, V domains shown)
VH: AVQLVESGGGLVQPKESLKISCAASGFTFSNAAMYWVRQAPGKGLEWVARIRTKPNYHATYYADSVKGRFTISRDDSKSMVYLQMDNLKAEDTAIYYCAASVLYTADSLDYWGQGVMVTVSS
VL: B1 VL
B25: R18-13-35 (antibody, V domains shown)
VH: AVQLVESGGGLVQPRESLKISCAASGFTFSNAAMYWVRQAPGKGLEWVARIRTKANNYATNYADSLKGRFIISRDDSKSVVYLQMGNLKPEDTAMYYCTAGDTMGPHWFVYWGQGTLVTVSS
VL: B1 VL
B26: R18-13-28 (antibody, V domains shown)
VH: AVQLVESGGGLVQPKESLKISCAASGFTFSNAAMYWVRQAPGKGLEWVARIRTKTNNYATNYADSVKGRFTISRDDSKSMVYLQMDNLKTEDTAMYYCSAARGGWYLWLDYWGQGVMVTVAS
VL: B1 VL
B27: R18-11-02 (antibody, V domains shown)
VH: AVQLVESGGGLVQPKESLKISCAASGFTFSNAAMYWVRQAPGKGLEWVARIRTKPNNYATYYADSMKGRFTISRDDSKSMVYLQMGNLKTEDTAMYYCTAELITTAFDYWGQGVMVTVSS
VL: B1 VL
B28: R18-11-04 (antibody, V domains shown)
VH: AVQLVESGGGLVQPKESLKISCAASGFTFSNAAMYWVRQAPGKGLEWVARIRTQPNNYATYYADSVKGRFTISRDDAKSMVYLQMDNLKTEDTAMYYCTAGTVEVTSTWWGQGVMVTVSS
VL: B1 VL
B29: R18-12-25 (antibody, V domains shown)
VH: AVQLVESGGGLVRPQESLKISCAASGFTFRDTAMYWVRQAPGKGLEWVARIRTKPNDYATYFADSVKGRFTISRDDSKSMVYLQMDTLKTEDTAMYYCTAPINNWDWFAYWGQGTLVTVSS
VL: B1 VL

This is an account of results in PMC11437124 (Nature Communications, 2024).

Substitutions are numbered along the chain they refer to.

The target of this assay is human TREM2 extracellular domain (ECD) (Homo sapiens, UniProt Q9NZC2).
human TREM2 extracellular domain (ECD), sequence (Q9NZC2 19-174): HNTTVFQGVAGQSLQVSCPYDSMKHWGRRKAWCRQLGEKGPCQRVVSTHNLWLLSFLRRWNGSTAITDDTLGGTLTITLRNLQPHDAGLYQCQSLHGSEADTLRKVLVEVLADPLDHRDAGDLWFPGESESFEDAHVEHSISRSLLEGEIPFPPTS
On to B1, for which the binding result is “binds”.

Regarding B2, the binding result is given as “binds”.

As to B3, the binding result is listed as “binds”.

As to B4, the binding result is listed as “binds”.

Turning to B5, the binding result was “binds”.

Turning to B6, the binding result was “binds”.

As for B7, the binding result was “binds”.

For the molecule B8, the binding result was “binds”.

Regarding B9, the binding result is on record as “binds”.

With B10, the binding result was “binds”.

As for B11, the binding result is “binds”.

Regarding B12, the binding result was “binds”.

B13: the binding result was “binds”.

Turning to B14, the binding result is “binds”.

Take B15: the binding result is “binds”.

B16: the binding result is recorded as “binds”.

B17: the binding result is “binds”.

B18: the binding result is “binds”.

As to B19, the binding result is listed as “binds”.

Regarding B20, the binding result is given as “binds”.

Consider B21, for which the binding result is reported as “binds”.

Take B22: the binding result is given as “binds”.

Consider B23, for which the binding result is given as “binds”.

B24: the binding result is recorded as “binds”.

In the case of B25, the binding result is on record as “binds”.

On to B26, for which the binding result was “binds”.

Regarding B27, the binding result is “binds”.

Take B28: the binding result is “binds”.

Consider B29, for which the binding result is reported as “binds”.
